Assay results: publication doi:10.1101/746693 (bioRxiv, 2019)

Molecular target: T1, Proteinase Activated Receptor-4 (PAR4)-YFP, wild type (human, UniProt Q96RI0 48-385)
T1 sequence (looked up): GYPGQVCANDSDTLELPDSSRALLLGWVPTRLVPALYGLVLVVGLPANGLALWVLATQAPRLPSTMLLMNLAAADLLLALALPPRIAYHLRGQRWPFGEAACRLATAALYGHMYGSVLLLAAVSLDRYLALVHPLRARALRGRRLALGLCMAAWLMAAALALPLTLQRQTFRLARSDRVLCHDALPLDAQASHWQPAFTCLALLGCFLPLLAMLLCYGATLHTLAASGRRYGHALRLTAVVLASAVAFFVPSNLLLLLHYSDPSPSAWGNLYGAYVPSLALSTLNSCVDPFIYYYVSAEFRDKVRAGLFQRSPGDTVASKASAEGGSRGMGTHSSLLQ
Assay: FRET or BRET

EC50 of (N-Me-A)-YPGKF-NH2 for recruitment (BRET): 6.8 µM | EC50 of A-(N-Me-Y)-PGKF-NH2 for recruitment (BRET): 14.2 µM | EC50 of AYPG-(Nα-Me-K)-F-NH2 for recruitment (BRET): 12.2 µM | EC50 of AYPGK-(N-Me-F)-NH2 for recruitment (BRET): 10.4 µM | EC50 of Ac-AYPGKF-NH2 for recruitment (BRET): 15 µM | EC50 of VYPGKF-NH2 for recruitment (BRET): 33.8 µM
B1: β-arrestin-1-renilla luciferase (natural protein, UniProt P49407 1-418, looked up)
chain: MGDKGTRVFKKASPNGKLTVYLGKRDFVDHIDLVDPVDGVVLVDPEYLKERRVYVTLTCAFRYGREDLDVLGLTFRKDLFVANVQSFPPAPEDKKPLTRLQERLIKKLGEHAYPFTFEIPPNLPCSVTLQPGPEDTGKACGVDYEVKAFCAENLEEKIHKRNSVRLVIRKVQYAPERPGPQPTAETTRQFLMSDKPLHLEASLDKEIYYHGEPISVNVHVTNNTNKTVKKIKISVRQYADICLFNTAQYKCPVAMEEADDTVAPSSTFCKVYTLTPFLANNREKRGLALDGKLKHEDTNLASSTLLREGANREILGIIVSYKVKVKLVVSRGGLLGDLASSDVAVELPFTLMHPKPKEEPPHREVPENETPVDTNLIELDTNDDDIVFEDFARQRLKGMKDDKEEEEDGTGSPQLNNR
